Assay results reported in the supplement of paper PMC7125110.
± gives the standard error. For some assays here: Fewer inactive variants are shown than the library holds.

B1: glmS ribozyme (parent)
chain: AUAAAAGCGCCAGAACUACAGAAAUGUAGUUGACGAGGAGGAGGUUUAUCGAAUUUUCGGCGGAUGCCUCCAAA

What was measured:
Details in all cases: with glucosamine-6-phosphate
glucosamine-6-phosphate [1] = variants of: B1; test: kcat; higher = faster cleavage; RNA array
Method in brief: (§1)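 Tiles bearing barcoded ribozyme variants, transcribed in situ by E. coli RNA polymerase on sequenced MiSeq chips, were imaged over ~14 h at 37 °C using a hybridised Cy3 probe. Glucosamine-6-phosphate was supplied at 40 μM to 10 mM in HEPES/KCl/Mg(OAc)2 buffer. kobs came from one- or two-exponential decay fits to normalised per-tile medians, and weighted Michaelis–Menten fits then provided kcat and KM.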

glucosamine-6-phosphate [2] = variants of: B1; test: KM; higher = weaker cofactor use; RNA array
Method in brief: as §1

glucosamine-6-phosphate [3] = variants of: B1; test: self-cleavage kobs at 10000 uM GlcN6P; higher = faster cleavage; RNA array
Method in brief: as §1

glucosamine-6-phosphate [4] = variants of: B1; test: self-cleavage kobs at 40 uM GlcN6P; higher = faster cleavage; RNA array
Method in brief: as §1

glucosamine-6-phosphate [5] = variants of: B1; test: self-cleavage kobs at 640 uM GlcN6P; higher = faster cleavage; RNA array
Method in brief: as §1

glucosamine-6-phosphate [6] = variants of: B1; test: self-cleavage kobs at 2500 uM GlcN6P; higher = faster cleavage; RNA array
Method in brief: as §1

glucosamine-6-phosphate [7] = variants of: B1; test: self-cleavage kobs at 160 uM GlcN6P; higher = faster cleavage; RNA array
Method in brief: as §1

## AUAAAAGCGCCAGAACUACAGAAAUGUAGUUCACGAGGAGGAGGUUUAUCGAAUUUUCGGCGGAUGGCUCCAAA [G32C C67G]
glucosamine-6-phosphate [1]
  kcat: 2.22e-05 ± 2.6e-06 s⁻¹
glucosamine-6-phosphate [2]
  KM: 2060 ± 980 µM
glucosamine-6-phosphate [3]
  self-cleavage kobs at 10000 uM GlcN6P: 1.85e-05 ± 8.6e-06 s⁻¹

## AUAAAAGCGCCAGAACUACAGAAAUGUAGUUGACGAGGAGGAUGUUUAUCGAAUUUUCGGCGGAUGCCUCCAAA [G43U]
glucosamine-6-phosphate [1]
  kcat: 4.89e-05 ± 4.3e-06 s⁻¹
glucosamine-6-phosphate [2]
  KM: 986 ± 410 µM
glucosamine-6-phosphate [4]
  self-cleavage kobs at 40 uM GlcN6P: < 1e-05 s⁻¹
glucosamine-6-phosphate [5]
  self-cleavage kobs at 640 uM GlcN6P: 1.42e-05 ± 2e-06 s⁻¹
glucosamine-6-phosphate [6]
  self-cleavage kobs at 2500 uM GlcN6P: 3.98e-05 ± 1.6e-06 s⁻¹
glucosamine-6-phosphate [3]
  self-cleavage kobs at 10000 uM GlcN6P: 4.31e-05 ± 1.2e-06 s⁻¹

## AUAAAAGCGCCAGAACUACAGAAAUGUAGUUUACGAGGAGGAGGUUUAUCUAAUAUUCGGCGGAUGCCUCCAAA [G32U G51U U55A]
glucosamine-6-phosphate [1]
  kcat: 1.45e-05 ± 2.5e-06 s⁻¹

## AUAAAAGCGCCAGAACUACAGAAAUGUAGUGGACGAGGAGGAGGUUUAUCGAAUUUUCGGCGGAUGUCUCCAAA [U31G C67U]
glucosamine-6-phosphate [1]
  kcat: 0.00291 ± 0.00094 s⁻¹
glucosamine-6-phosphate [2]
  KM: 1040 ± 460 µM
glucosamine-6-phosphate [4]
  self-cleavage kobs at 40 uM GlcN6P: 0.000124 ± 9.4e-06 s⁻¹
glucosamine-6-phosphate [7]
  self-cleavage kobs at 160 uM GlcN6P: 0.000329 ± 6.4e-05 s⁻¹
glucosamine-6-phosphate [5]
  self-cleavage kobs at 640 uM GlcN6P: 0.00082 ± 0.00012 s⁻¹
glucosamine-6-phosphate [6]
  self-cleavage kobs at 2500 uM GlcN6P: 0.00179 ± 0.00027 s⁻¹
glucosamine-6-phosphate [3]
  self-cleavage kobs at 10000 uM GlcN6P: 0.00391 ± 0.00047 s⁻¹

## AUAAAAGCGCCAGAACUACAGAAAUGUAGUUCACGAGGAGGAGGUUAAUCGAAUUUUCGGCGGAUGCCUCCAAA [G32C U47A]
glucosamine-6-phosphate [1]
  kcat: 4.35e-05 ± 2.1e-06 s⁻¹
glucosamine-6-phosphate [2]
  KM: 1450 ± 320 µM
glucosamine-6-phosphate [6]
  self-cleavage kobs at 2500 uM GlcN6P: 2.87e-05 ± 1.3e-05 s⁻¹
glucosamine-6-phosphate [3]
  self-cleavage kobs at 10000 uM GlcN6P: 3.77e-05 ± 9.7e-06 s⁻¹

## AUAAAAGCGCCAGAACUACAGAAAUGUAUUUGACGAGGAGGAGGUUUAUCGAAUUUUCGGCGGAUGACUCCAAA [G29U C67A]
glucosamine-6-phosphate [1]
  kcat: 0.000685 ± 0.00017 s⁻¹
glucosamine-6-phosphate [2]
  KM: 812 ± 370 µM
glucosamine-6-phosphate [4]
  self-cleavage kobs at 40 uM GlcN6P: 5.58e-05 ± 7.8e-06 s⁻¹
glucosamine-6-phosphate [7]
  self-cleavage kobs at 160 uM GlcN6P: 9.85e-05 ± 1.4e-05 s⁻¹
glucosamine-6-phosphate [5]
  self-cleavage kobs at 640 uM GlcN6P: 0.000276 ± 3.9e-05 s⁻¹
glucosamine-6-phosphate [6]
  self-cleavage kobs at 2500 uM GlcN6P: 0.000437 ± 5.6e-05 s⁻¹
glucosamine-6-phosphate [3]
  self-cleavage kobs at 10000 uM GlcN6P: 0.000787 ± 8.4e-05 s⁻¹

## AUAAAAGCGCCAGAACUACAGAAAUGUAGUAGACGAGGAGGGGGUUAAUCGAAUUUUCGGCGGAUGCCUCCAAA [U31A A42G U47A]
glucosamine-6-phosphate [1]
  kcat: 0.00933 ± 0.0047 s⁻¹
glucosamine-6-phosphate [4]
  self-cleavage kobs at 40 uM GlcN6P: 0.000345 ± 9.2e-05 s⁻¹
glucosamine-6-phosphate [5]
  self-cleavage kobs at 640 uM GlcN6P: 0.00346 ± 0.001 s⁻¹
glucosamine-6-phosphate [3]
  self-cleavage kobs at 10000 uM GlcN6P: 0.00844 ± 0.0039 s⁻¹

## AUAAAAGCGCCAGAACUACAGAAAUGUAGCUGACGAGGAGGAGGUUUAUCGAUUUUUCGGCGGAUGCCUCCAAA [U30C A53U]
glucosamine-6-phosphate [1]
  kcat: 0.000197 ± 3.1e-05 s⁻¹
glucosamine-6-phosphate [2]
  KM: 1290 ± 540 µM
glucosamine-6-phosphate [5]
  self-cleavage kobs at 640 uM GlcN6P: 5.5e-05 ± 1e-05 s⁻¹
glucosamine-6-phosphate [6]
  self-cleavage kobs at 2500 uM GlcN6P: 0.000158 ± 1.5e-05 s⁻¹
glucosamine-6-phosphate [3]
  self-cleavage kobs at 10000 uM GlcN6P: 0.000159 ± 1.8e-05 s⁻¹

## AUAAAAGCGCAAGAGAUACAGAAAUGUAUUUGACGAGGAGGAGGUUUAUCGAAUUUUCGGCGGAUGCCUCCAAA [C11A A15G C16A G29U]
glucosamine-6-phosphate [1]
  kcat: 0.000222 ± 4.3e-05 s⁻¹
glucosamine-6-phosphate [2]
  KM: 2210 ± 1100 µM
glucosamine-6-phosphate [5]
  self-cleavage kobs at 640 uM GlcN6P: 6.91e-05 ± 2.4e-05 s⁻¹
glucosamine-6-phosphate [6]
  self-cleavage kobs at 2500 uM GlcN6P: 0.000102 ± 2.4e-05 s⁻¹
glucosamine-6-phosphate [3]
  self-cleavage kobs at 10000 uM GlcN6P: 0.000192 ± 3.5e-05 s⁻¹

## AUAAAAGCGCCAUAACUACAGAAAUGUAGCUGACGAGGAGGAGGUUUAUCGAAUUUUCGGCGGAUGCCUCCAAA [G13U U30C]
glucosamine-6-phosphate [1]
  kcat: 0.000509 ± 0.00014 s⁻¹
glucosamine-6-phosphate [2]
  KM: 3530 ± 1600 µM
glucosamine-6-phosphate [7]
  self-cleavage kobs at 160 uM GlcN6P: 3.75e-05 ± 1e-05 s⁻¹
glucosamine-6-phosphate [5]
  self-cleavage kobs at 640 uM GlcN6P: 6.12e-05 ± 1.2e-05 s⁻¹
glucosamine-6-phosphate [6]
  self-cleavage kobs at 2500 uM GlcN6P: 0.000253 ± 3.1e-05 s⁻¹
glucosamine-6-phosphate [3]
  self-cleavage kobs at 10000 uM GlcN6P: 0.000354 ± 4.9e-05 s⁻¹

## AUAAAAGCGCCAGAUCUACAGAAAUGUAGUUGACGAGUAGGAGGUUUAUCGAAUUUUCGGCGGAUGCCUCCAAA [A15U G38U]
glucosamine-6-phosphate [1]
  kcat: < 1e-05 s⁻¹
glucosamine-6-phosphate [4]
  self-cleavage kobs at 40 uM GlcN6P: < 1e-05 s⁻¹
glucosamine-6-phosphate [7]
  self-cleavage kobs at 160 uM GlcN6P: < 1e-05 s⁻¹

## AUAAAAGCGCCAGAACUACAGAAAUGUAGUUGACGAGGAGGAGGUUUAUCGACUUUGCGGCGGAUGCCUCCAAA [A53C U57G]
glucosamine-6-phosphate [1]
  kcat: 0.000348 ± 0.00012 s⁻¹
glucosamine-6-phosphate [5]
  self-cleavage kobs at 640 uM GlcN6P: 9.98e-05 ± 1.6e-05 s⁻¹
glucosamine-6-phosphate [6]
  self-cleavage kobs at 2500 uM GlcN6P: 0.000143 ± 1.9e-05 s⁻¹
glucosamine-6-phosphate [3]
  self-cleavage kobs at 10000 uM GlcN6P: 0.000339 ± 4.6e-05 s⁻¹

## AUAAAAGCGCCAGAACUACAGAAAUGUAGUUGACGAGGAGGAGGUUUAUCGAAUUUUCUGCGGAUGACUCCAAA [G59U C67A]
glucosamine-6-phosphate [1]
  kcat: 1.11e-05 ± 3.2e-06 s⁻¹
glucosamine-6-phosphate [4]
  self-cleavage kobs at 40 uM GlcN6P: < 1e-05 s⁻¹

## AUAAAAGAGCCAGAACUACAGAAAUGUAGUUGACGAGGAGGAGGUUUAUCGAAUUUUCGGUGGAUACCUCCAAA [C8A C61U G66A]
glucosamine-6-phosphate [1]
  kcat: < 1e-05 s⁻¹
glucosamine-6-phosphate [5]
  self-cleavage kobs at 640 uM GlcN6P: < 1e-05 s⁻¹
glucosamine-6-phosphate [6]
  self-cleavage kobs at 2500 uM GlcN6P: < 1e-05 s⁻¹

## AUAAAAGCGCCAGAACUACAGAAAUGUAGUUGACGAGGAGGAGGUUUAUCGAAUUAUCGGCGGCUGCCUCCAAA [U56A A64C]
glucosamine-6-phosphate [1]
  kcat: 6.42e-05 ± 1e-05 s⁻¹
glucosamine-6-phosphate [4]
  self-cleavage kobs at 40 uM GlcN6P: < 1e-05 s⁻¹
glucosamine-6-phosphate [6]
  self-cleavage kobs at 2500 uM GlcN6P: 6.08e-05 ± 1.1e-05 s⁻¹
glucosamine-6-phosphate [3]
  self-cleavage kobs at 10000 uM GlcN6P: 5.71e-05 ± 9.1e-06 s⁻¹

## AUAAAAGCGCCAGAACUACAGAAAUGUAGUCGACGAUGAGGAGGUUUAUCGAAUUUUCGGCCGUUGCCUACAAA [U31C G37U G62C A64U C70A]
glucosamine-6-phosphate [1]
  kcat: < 1e-05 s⁻¹
glucosamine-6-phosphate [4]
  self-cleavage kobs at 40 uM GlcN6P: < 1e-05 s⁻¹
glucosamine-6-phosphate [3]
  self-cleavage kobs at 10000 uM GlcN6P: < 1e-05 s⁻¹

## AUAAAAGCGCCAGAACUACAGAAAUGUAGUUGACGAGGAGGAGGUUUACCGAAUUUUCGGCGGAUGGCUCCAAA [U49C C67G]
glucosamine-6-phosphate [1]
  kcat: < 1e-05 s⁻¹
glucosamine-6-phosphate [4]
  self-cleavage kobs at 40 uM GlcN6P: < 1e-05 s⁻¹
glucosamine-6-phosphate [7]
  self-cleavage kobs at 160 uM GlcN6P: < 1e-05 s⁻¹
glucosamine-6-phosphate [3]
  self-cleavage kobs at 10000 uM GlcN6P: < 1e-05 s⁻¹

## AUAAAACCGGCAGAACUACAGAAAUGUAGUUGACGAGGAGGAGGUUUAUCGAAUUUUCGGCGGAUGGCUCCAAA [G7C C10G C67G]
glucosamine-6-phosphate [1]
  kcat: 1.87e-05 ± 2.3e-06 s⁻¹

## AUAAAAGCGCCAGAACUACAGAAAUGUAGUUGACGAGGAGGAGGUUUAUCGAAUUUUCGGAGGAUUCCUCCAAA [C61A G66U]
glucosamine-6-phosphate [1]
  kcat: < 1e-05 s⁻¹

## AUAAAAGCGCCUGAACUACAGAAAUGUAGUUGACGAGGAGGAGGUUUAUCGAAUUUUCGGCGGAUGUCUGCAAA [A12U C67U C70G]
glucosamine-6-phosphate [1]
  kcat: 2.06e-05 ± 6.6e-06 s⁻¹
